Source: the supplement of paper PMC12855868

B1: library; numbered along this chain (parent)
chain: MAAAGGARLLRAASAVLGGPAGRWLHHAGSRAGSSGLLRNRGPGGSAEASRSLSVSARARSSSEDKITVHFINRDGETLTTKGKVGDSLLDVVVENNLDIDGFGACEGTLACSTCHLIFEDHIYEKLDAITDEENDMLDLAYGLTDRSRLGCQICLTKSMDNMTVRVPETVADARQSIDVGKTS

Variants of: B1
Assay: scaled log2 fold change in cell abundance, elesclomol vs control (0 = silent mean, 1 = nonsense mean) (scaled log2 ratio); higher = higher viability under elesclomol (loss of FDX1 cuproptosis function)
Conditions: glucose 10 mM
[1] = with ABC1 FDX1 KO, elesclomol 5 nM, 14 days
[2] = with HEK293T FDX1 KO, elesclomol 40 nM, 11 days
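Also: variant abundance is its share of total variant reads in each endpoint sample, from next-generation sequencing of the integrated ORF PCR-amplified out of genomic DNA.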

Row | Variant | scaled log2 fold change [1] | scaled log2 fold change [2]
1 | MAAAGGARLLRAASAVLGGPAGRWLHHAGSRAGSSGLLRNRGPGGSAEASRSLSVSARARSSSEDKITVHFINRDGETLTTKGKVGDSLLDVVVENNLDIDGFGACEGTLACSTCHLIFEDHIYEKLDAITDEENDMLDCAYGLTDRSRLGCQICLTKSMDNMTVRVPETVADARQSIDVGKTS [L140C] | -0.0723 | -0.467
2 | MAAAGGARLLRAASAVLGGPAGRWLHHAGSRAGSSGLLRNRGPGGSAEASRSLSVSARARSSSEDKITVHFINRDGETLTTKGKVGDSLLDVVVENNLDIDGFGACEGTLACSTCHLIFEDHIYEKLDAITDEENDMLDDAYGLTDRSRLGCQICLTKSMDNMTVRVPETVADARQSIDVGKTS [L140D] | -0.319 | -0.308
3 | MAAAGGARLLRAASAVLGGPAGRWLHHAGSRAGSSGLLRNRGPGGSAEASRSLSVSARARSSSEDKITVHFINRDGETLTTKGKVGDSLLDVVVENNLDIDGFGACEGTLACSTCHLIFEDHIYEKLDAITDEENDMLDAAYGLTDRSRLGCQICLTKSMDNMTVRVPETVADARQSIDVGKTS [L140A] | -0.069 | -1.25
4 | MAAAGGARLLRAASAVLGGPAGRWLHHAGSRAGSSGLLRNRGPGGSAEASRSLSVSARARSSSEDKITVHFINRDGETLTTKGKVGDSLLDVVVENNLDIDGFGACEGTLACSTCHLIFEDHIYEKLDAITDEENDMLTLAYGLTDRSRLGCQICLTKSMDNMTVRVPETVADARQSIDVGKTS [D139T] | -0.31 | -0.694
5 | MAAAGGARLLRAASAVLGGPAGRWLHHAGSRAGSSGLLRNRGPGGSAEASRSLSVSARARSSSEDKITVHFINRDGETLTTKGKVGDSLLDVVVENNLDIDGFGACEGTLACSTCHLIFEDHIYEKLDAITDEENDMLRLAYGLTDRSRLGCQICLTKSMDNMTVRVPETVADARQSIDVGKTS [D139R] | 0.938 | 1.09
6 | MAAAGGARLLRAASAVLGGPAGRWLHHAGSRAGSSGLLRNRGPGGSAEASRSLSVSARARSSSEDKITVHFINRDGETLTTKGKVGDSLLDVVVENNLDIDGFGACEGTLACSTCHLIFEDHIYEKLDAITDEENDMLILAYGLTDRSRLGCQICLTKSMDNMTVRVPETVADARQSIDVGKTS [D139I] | -0.652 | 0.722
7 | MAAAGGARLLRAASAVLGGPAGRWLHHAGSRAGSSGLLRNRGPGGSAEASRSLSVSARARSSSEDKITVHFINRDGETLTTKGKVGDSLLDVVVENNLDIDGFGACEGTLACSTCHLIFEDHIYEKLDAITDEENDMLMLAYGLTDRSRLGCQICLTKSMDNMTVRVPETVADARQSIDVGKTS [D139M] | 0.045 | 0.155
8 | MAAAGGARLLRAASAVLGGPAGRWLHHAGSRAGSSGLLRNRGPGGSAEASRSLSVSARARSSSEDKITVHFINRDGETLTTKGKVGDSLLDVVVENNLDIDGFGACEGTLACSTCHLIFEDHIYEKLDAITDEENDMLQLAYGLTDRSRLGCQICLTKSMDNMTVRVPETVADARQSIDVGKTS [D139Q] | -0.0276 | 0.00203
9 | MAAAGGARLLRAASAVLGGPAGRWLHHAGSRAGSSGLLRNRGPGGSAEASRSLSVSARARSSSEDKITVHFINRDGETLTTKGKVGDSLLDVVVENNLDIDGFGACEGTLACSTCHLIFEDHIYEKLDAITDEENDMLKLAYGLTDRSRLGCQICLTKSMDNMTVRVPETVADARQSIDVGKTS [D139K] | 0.896 | 0.86
10 | MAAAGGARLLRAASAVLGGPAGRWLHHAGSRAGSSGLLRNRGPGGSAEASRSLSVSARARSSSEDKITVHFINRDGETLTTKGKVGDSLLDVVVENNLDIDGFGACEGTLACSTCHLIFEDHIYEKLDAITDEENDMLNLAYGLTDRSRLGCQICLTKSMDNMTVRVPETVADARQSIDVGKTS [D139N] | -0.132 | 
11 | MAAAGGARLLRAASAVLGGPAGRWLHHAGSRAGSSGLLRNRGPGGSAEASRSLSVSARARSSSEDKITVHFINRDGETLTTKGKVGDSLLDVVVENNLDIDGFGACEGTLACSTCHLIFEDHIYEKLDAITDEENDMLSLAYGLTDRSRLGCQICLTKSMDNMTVRVPETVADARQSIDVGKTS [D139S] | -0.201 | -1.37
12 | MAAAGGARLLRAASAVLGGPAGRWLHHAGSRAGSSGLLRNRGPGGSAEASRSLSVSARARSSSEDKITVHFINRDGETLTTKGKVGDSLLDVVVENNLDIDGFGACEGTLACSTCHLIFEDHIYEKLDAITDEENDMLVLAYGLTDRSRLGCQICLTKSMDNMTVRVPETVADARQSIDVGKTS [D139V] | 0.0114 | 
13 | MAAAGGARLLRAASAVLGGPAGRWLHHAGSRAGSSGLLRNRGPGGSAEASRSLSVSARARSSSEDKITVHFINRDGETLTTKGKVGDSLLDVVVENNLDIDGFGACEGTLACSTCHLIFEDHIYEKLDAITDEENDMLYLAYGLTDRSRLGCQICLTKSMDNMTVRVPETVADARQSIDVGKTS [D139Y] | -0.145 | 0.0051
14 | MAAAGGARLLRAASAVLGGPAGRWLHHAGSRAGSSGLLRNRGPGGSAEASRSLSVSARARSSSEDKITVHFINRDGETLTTKGKVGDSLLDVVVENNLDIDGFGACEGTLACSTCHLIFEDHIYEKLDAITDEENDMLLLAYGLTDRSRLGCQICLTKSMDNMTVRVPETVADARQSIDVGKTS [D139L] | 0.0653 | -0.608
15 | MAAAGGARLLRAASAVLGGPAGRWLHHAGSRAGSSGLLRNRGPGGSAEASRSLSVSARARSSSEDKITVHFINRDGETLTTKGKVGDSLLDVVVENNLDIDGFGACEGTLACSTCHLIFEDHIYEKLDAITDEENDMLWLAYGLTDRSRLGCQICLTKSMDNMTVRVPETVADARQSIDVGKTS [D139W] | 0.0888 | -0.429
16 | MAAAGGARLLRAASAVLGGPAGRWLHHAGSRAGSSGLLRNRGPGGSAEASRSLSVSARARSSSEDKITVHFINRDGETLTTKGKVGDSLLDVVVENNLDIDGFGACEGTLACSTCHLIFEDHIYEKLDAITDEENDMLPLAYGLTDRSRLGCQICLTKSMDNMTVRVPETVADARQSIDVGKTS [D139P] | -0.0434 | -0.395
17 | MAAAGGARLLRAASAVLGGPAGRWLHHAGSRAGSSGLLRNRGPGGSAEASRSLSVSARARSSSEDKITVHFINRDGETLTTKGKVGDSLLDVVVENNLDIDGFGACEGTLACSTCHLIFEDHIYEKLDAITDEENDMLHLAYGLTDRSRLGCQICLTKSMDNMTVRVPETVADARQSIDVGKTS [D139H] | -0.062 | -0.315
